Consider 2 molecules from PMC7336453, “Inhibition of multiple defense responsive pathways by CaWRKY70 transcription factor promotes susceptibility in chickpea under Fusarium oxysporum stress condition”.

Series [1] has as its target T1, His6-CaWRKY40 (Cicer arietinum, UniProt A0A1S2YMJ3 1-315).
T1 sequence: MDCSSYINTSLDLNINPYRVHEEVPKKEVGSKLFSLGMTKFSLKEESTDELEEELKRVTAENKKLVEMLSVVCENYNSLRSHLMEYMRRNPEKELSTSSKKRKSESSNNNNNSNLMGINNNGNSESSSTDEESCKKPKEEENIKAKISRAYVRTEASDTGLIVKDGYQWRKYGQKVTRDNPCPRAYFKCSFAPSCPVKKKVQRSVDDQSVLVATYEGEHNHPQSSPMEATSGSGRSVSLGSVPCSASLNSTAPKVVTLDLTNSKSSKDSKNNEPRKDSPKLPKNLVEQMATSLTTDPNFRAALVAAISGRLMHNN
As to the kind of experiment: EMSA; 200 ng protein; competed by 50 molar excess cold probe; 20 mM HEPES pH 7.5, 100 mM KCl, 0.2 mM EDTA, 1 mM DTT, 2 mM MgCl2, 1 ug poly dI-dC; 10 ng probe, 100-200 ng protein; 30 min room temperature; 5% PAGE 0.5x TBE at 4 C. Particulars: protein: recombinant; tags: 6xHis (pET28a); label: labelled (32P). A general note: A gel shift assay detects complexes by their altered migration in electrophoresis.

In series [2] the target is T1, His6-CaWRKY40. As to the kind of experiment: EMSA; 200 ng protein; competed by 20 molar excess cold probe; 20 mM HEPES pH 7.5, 100 mM KCl, 0.2 mM EDTA, 1 mM DTT, 2 mM MgCl2, 1 ug poly dI-dC; 10 ng probe, 100-200 ng protein; 30 min room temperature; 5% PAGE 0.5x TBE at 4 C. To be noted: protein: recombinant; tags: 6xHis (pET28a); label: labelled (32P).

B1: pCaMPK9 W-box 2 (dsDNA)
DNA 1: TTAAAATTATTTGTCATCTAAAAGAATCA
DNA 2: TGATTCTTTTAGATGACAAATAATTTTAA
For B1, the binding result in series [1] is “binds”.

B2: pCaMPK9 W-box 1 (dsDNA)
DNA 1: ATTGGTTCAGTTTTGTAGTCAACAAAATCT
DNA 2: AGATTTTGTTGACTACAAAACTGAACCAAT
In the case of B2, the binding result in series [2] is recorded as “binds”.
